Laboratory results taken from patent publication US20050032245A1 (Harvard, published 2005).
Oregon Green 514 = pentafluorofluorescein derivative

Key:
[1] = target: T1, MBP-UL42Δ340 (truncated UL42 processivity subunit of HSV DNA polymerase as maltose binding protein fusion) (herpes simplex virus, UniProt P10226 1-339, N-terminal MBP fusion, not carried in the letters); assay: fluorescence polarization; MBP-UL42 titrated (1 to 50 µM) into 1 nM labeled peptide, Hofstee transformation
T1 construct: Expressed in E. coli BL21(de3)pLysS and purified over amylose; also called wt UL42; HSV MBP-UL42
T1 sequence: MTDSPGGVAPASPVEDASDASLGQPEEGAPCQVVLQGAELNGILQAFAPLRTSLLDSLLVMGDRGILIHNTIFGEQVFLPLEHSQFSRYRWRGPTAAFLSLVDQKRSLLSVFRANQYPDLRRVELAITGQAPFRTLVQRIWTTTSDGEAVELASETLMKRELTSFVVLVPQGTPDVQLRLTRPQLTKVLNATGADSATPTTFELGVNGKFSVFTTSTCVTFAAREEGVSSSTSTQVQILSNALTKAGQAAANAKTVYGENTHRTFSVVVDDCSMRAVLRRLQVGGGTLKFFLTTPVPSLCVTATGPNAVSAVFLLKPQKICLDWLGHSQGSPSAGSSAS

[2] = target: T1, MBP-UL42Δ340 (truncated UL42 …); assay: fluorescence polarization competition; peptide A displaces labeled peptide E from 7 µM UL42, Hill equation

B1: Oregon Green 514-labeled peptide E (18 C-terminal amino acids of HSV Pol) (peptide)
peptide: {Oregon Green 514}-ATAEETRRMLHRAFDTLA-NH2
notes: also called Oregon Green-peptide E; labeled tracer
Kd [1]: 5 µM

B2: peptide A (36-mer derived from the C-terminus of HSV Pol) (peptide)
peptide: DDVAARLRTAGFGAVGAGATAEETRRMLHRAFDTLA
notes: also called 36-mer peptide A; unlabeled peptide A
IC50 [2]: ~6 µM
